Reference: the supplement of paper PMC10724198
± gives the standard deviation of the averaged measurements.

Test system: Saccharomyces cerevisiae
Experiment: protein stability index of tFT-peptide fusion (C-terminal peptide) (PSI (0-1 scale)); higher = more stable (slower turnover)
Settings: genetic background: wild type; temperature: 30 C
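Further: PSI is a weighted mean of sequencing reads over stability bins, variants kept only with over 10 reads, mCherry proximal and sfGFP distal, peptide attached via GGGS linker.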

Sequence	protein stability index
IALLGCFRVNGN	0.638 ± 0.095
SSLPPPPRSPPH	0.715 ± 0.029
GGTGGWVVNRGV	0.706 ± 0.079
PLPPSAPPLPPS	0.778 ± 0.091
HKEYGTTCYGYR	0.691 ± 0.049
MIFCSPPPLFFP	0.7 ± 0.0013
APPVPLWVNPRT	0.7 ± 0.025
KAGDRRPDNHSN	0.66 ± 0.064
PVVKGAAGSAQR	0.725 ± 0.074
DKRHQSALSFFI	0.736 ± 0.0089
VLVVRERGAVDG	0.697 ± 0.1
WVTSSTRGRSGS	0.644 ± 0.033
GGGGGGGGAGGV	0.6985 ± 0.0011
FGGFVPSSQCLI	0.712 ± 0.018
SAPPPAPPPPPR	0.702 ± 0.027
RKRHDLPPAGPH	0.713 ± 0.023
ILKKLNQEINKE	0.698 ± 0.028
RARQYTTAMIQS	0.469 ± 0.088
GLSPPLCSTPSR	0.736 ± 0.0092
PLSPPPPSHIPP	0.653 ± 0.023
KQKQRKERIKRK	0.688 ± 0.069
LTFPILPVSTRV	0.603 ± 0.025
RFAGLRDVGCFL	0.695 ± 0.034
VLCRSLAGCCFV	0.709 ± 0.012
YLPRLISAPVGP	0.753 ± 0.076
NPYLLCKFSTLL	0.675 ± 0.028

Sequence	protein stability index
HSRGGEPLTPAW	0.642 ± 0.092
TTLATVLRTFPG	0.724 ± 0.031
PLHSPPSRPCQL	0.691 ± 0.065
EDCTKNPERDNS	0.68 ± 0.048
PPSPRPPPPSPS	0.719 ± 0.1
LSCRGVTIRYCW	0.683 ± 0.012
LPPPLSSPSSLR	0.7153 ± 0.0071
EFSWGGLAGSFG	0.68 ± 0.024
PPPRLNPLPPAC	0.731 ± 0.066
PRPAAPSPPPLP	0.588 ± 0.014
MLSPQIERGAGR	0.681 ± 0.018
TLPARPSVPLPP	0.629 ± 0.06
EPRWPCNVAGIV	0.706 ± 0.13
YTAPIIGIGDDG	0.659 ± 0.036
GRDPARPRPLAP	0.677 ± 0.046
ALRAGGRPYSVS	0.716 ± 0.014
PPYDSSYGILLR	0.7666 ± 0.0053
GESPSRVRSSAG	0.694 ± 0.036
GAGAVRPPARAS	0.699 ± 0.059
RFLVRSFIGWRG	0.669 ± 0.031
GNFDRVSMTKFR	0.73 ± 0.035
DPRRNGAPLRSI	0.676 ± 0.039
FLLFIRGFSGCR	0.624 ± 0.018
FVSGSVCPLLPP	0.667 ± 0.026
IFPLPPSSRLTP	0.6934 ± 0.0037
SFADFVFMDHCA	0.696 ± 0.062

Sequence	protein stability index
SAVGRTYGVIII	0.673 ± 0.029
EPKLPPCPTPPS	0.721 ± 0.012
SLTTPGMSQAYY	0.703 ± 0.034
PRGRSRPRCVIR	0.684 ± 0.13
EGGTGNHSVSNQ	0.654 ± 0.022
CCLSFMSPFFCF	0.75 ± 0.026
GGGKRGDMSVVV	0.689 ± 0.0092
VIGAGTGCVVVG	0.72 ± 0.013
FFSPSSVSVGVR	0.65 ± 0.076
FLCSLAPHRPLL	0.704 ± 0.033
SPSLPSLNRCSL	0.769 ± 0.016
LPPRSPSPHPHR	0.68 ± 0.0078
LQASRHPASPST	0.701 ± 0.048
RICTLCRGGRTP	0.673 ± 0.03
VSSELLFLVVRF	0.543 ± 0.0089
ESQSLLLFQEPS	0.696 ± 0.057
GSPSPLIALSRK	0.689 ± 0.0073
SLEFISIAFLDL	0.685 ± 0.042
DAIHSPALLASP	0.715 ± 0.092
GARGGSGGGQPG	0.661 ± 0.019
PPPPPPPHSPPS	0.664 ± 0.035
GPGSCPVRLCGF	0.661 ± 0.0074
SMWNFPRLAKTR	0.685 ± 0.018
CVFSEMIVCDGG	0.566 ± 0.049
SFPYPHRDLVTP	0.7114 ± 0.0016
KNKKEKKKVKRT	0.687 ± 0.026

Sequence	protein stability index
TRSQTASRSPTG	0.672 ± 0.017
PPLPGHPCLWPT	0.649 ± 0.057
KIGVHRGRGGRM	0.614 ± 0.13
RESRGAGGGEGG	0.667 ± 0.033
ETCIWDGRPIAS	0.723 ± 0.085
TPTRPLSSALRL	0.697 ± 0.05
SELRFALCPAFL	0.666 ± 0.019
ARGRAVRAAGAS	0.688 ± 0.088
PAPPLPPPAAPP	0.576 ± 0.0069
KIRRIHRNVVKG	0.786 ± 0.055
NRDSALGPTWAP	0.718 ± 0.034
AFLTSYHPPPLP	0.69 ± 0.059
HILINTCSCASL	0.546 ± 0.044
PSPASPPPPPLP	0.714 ± 0.2
DNKEIEQTIRNK	0.6304 ± 0.0041
PHPRPPLAPPLT	0.688 ± 0.038
SSPSSLPAPPSA	0.666 ± 0.039
PPPLSPSTSDHP	0.652 ± 0.019
IDLIKIKKKTKK	0.786 ± 0.17
TKKNKLRQKKTE	0.6457 ± 0.0028
IRGAARRRTQGY	0.731 ± 0.038
PRRFPFRHATSP	0.635 ± 0.084
VCALGWWASWVW	0.5512 ± 0.0013
